Source: US20210330736A1 (UNIVERSITEIT VAN AMSTERDAM, priority 2018, published 2021)
Bridges are numbered along the chain shown (N, C = ends). Where no end group is shown, it is not given here.

B1: peptide 3 (peptide)
peptide: H-NDDCELCVNVACTGC-OH
modifications: disulfide 4-12, 7-15
SMILES: CC(C)C[C@@H]1NC(=O)[C@H](CCC(=O)O)NC(=O)[C@@H](NC(=O)[C@H](CC(=O)O)NC(=O)[C@H](CC(=O)O)NC(=O)[C@@H](N)CC(N)=O)CSSC[C@@H]2NC(=O)[C@H](C)NC(=O)[C@H](C(C)C)NC(=O)[C@H](CC(N)=O)NC(=O)[C@H](C(C)C)NC(=O)[C@H](CSSC[C@@H](C(=O)O)NC(=O)CNC(=O)[C@H]([C@@H](C)O)NC2=O)NC1=O
B2: peptide 1 (peptide)
peptide: H-NDDCELCVNVACTGCL-OH
modifications: disulfide 4-12, 7-15
SMILES: CC(C)C[C@H](NC(=O)[C@@H]1CSSC[C@@H]2NC(=O)[C@H](CC(C)C)NC(=O)[C@H](CCC(=O)O)NC(=O)[C@@H](NC(=O)[C@H](CC(=O)O)NC(=O)[C@H](CC(=O)O)NC(=O)[C@@H](N)CC(N)=O)CSSC[C@H](NC(=O)[C@H](C)NC(=O)[C@H](C(C)C)NC(=O)[C@H](CC(N)=O)NC(=O)[C@H](C(C)C)NC2=O)C(=O)N[C@@H]([C@@H](C)O)C(=O)NCC(=O)N1)C(=O)O

Tests used:
GUCY2C = GUCY2C (Homo sapiens, UniProt P25092); experiment: Th Ser40 phosphorylation in HEK cells co-transfected with Th and GUCY2C (western blot); type: cell-based; design: expressed in transfected cells; host or cells: HEK cells (ATCC), calcium-phosphate transfection, co-transfected with mouse Th; settings: guanylin 10 μM, uroguanylin 1 μM, IBMX 100 μM, 1 hour
Chain of GUCY2C (P25092 24-1073): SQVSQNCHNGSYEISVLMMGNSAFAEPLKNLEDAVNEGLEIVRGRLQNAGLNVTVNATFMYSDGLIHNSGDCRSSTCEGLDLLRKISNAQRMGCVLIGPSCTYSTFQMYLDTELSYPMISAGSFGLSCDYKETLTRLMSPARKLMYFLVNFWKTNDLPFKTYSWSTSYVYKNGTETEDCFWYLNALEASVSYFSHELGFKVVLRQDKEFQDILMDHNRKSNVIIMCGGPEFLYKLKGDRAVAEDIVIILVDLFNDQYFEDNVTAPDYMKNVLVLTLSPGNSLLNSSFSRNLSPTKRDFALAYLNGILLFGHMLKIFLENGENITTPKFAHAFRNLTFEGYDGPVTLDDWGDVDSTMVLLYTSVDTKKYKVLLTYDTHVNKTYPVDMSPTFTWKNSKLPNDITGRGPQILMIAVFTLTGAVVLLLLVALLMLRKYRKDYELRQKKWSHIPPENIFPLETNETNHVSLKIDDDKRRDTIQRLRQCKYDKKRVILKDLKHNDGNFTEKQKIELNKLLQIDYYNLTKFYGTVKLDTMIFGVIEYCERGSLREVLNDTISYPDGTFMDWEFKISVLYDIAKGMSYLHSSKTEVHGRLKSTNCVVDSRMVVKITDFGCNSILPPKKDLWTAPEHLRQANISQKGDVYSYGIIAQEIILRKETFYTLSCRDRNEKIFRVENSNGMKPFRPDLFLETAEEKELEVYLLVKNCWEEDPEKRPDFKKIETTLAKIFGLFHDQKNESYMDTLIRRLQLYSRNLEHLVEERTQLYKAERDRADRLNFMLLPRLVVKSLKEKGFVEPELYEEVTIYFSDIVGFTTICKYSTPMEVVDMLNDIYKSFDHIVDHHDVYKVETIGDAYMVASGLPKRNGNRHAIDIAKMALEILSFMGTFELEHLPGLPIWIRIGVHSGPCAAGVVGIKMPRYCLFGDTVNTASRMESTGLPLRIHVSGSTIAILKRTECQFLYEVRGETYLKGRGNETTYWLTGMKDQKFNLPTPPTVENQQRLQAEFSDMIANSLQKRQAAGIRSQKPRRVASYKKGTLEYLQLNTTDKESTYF
Procedure: FIG. 4. GUCY2C activation increases Ser40 phosphorylation. Immunocytochemistry images (A) and western blotting analysis (B) of HEK cultures transfected with Th or Th+GUCY2C. (C) Co-transfected HEK cells were treated with guanylin (G) or uroguanylin (UroG) and changes in Ser40 phosphorylation were studied. The graph represents the statistical analysis (n=3 for Control, n=6 for Guanylin, n=9 for Uroguanylin; Mean±SEM). Unpaired Student's t-test (p-value: **<0.01).
FIG. 5. […] (A) HEK cultures were treated with guanylin, in the presence or absence of IBMX. […] Unpaired Student's t-test (p-values: ****<0.0001, **<0.01, *<0.05). (B) HEK cells were co-transfected with Th and either the wt GUCY2C or a gain-of-function mutant (R792S). Ser40 phosphorylation was studied following guanylin treatment (G). […] Unpaired Student's t-test (p-values: ***<0.001, **<0.01).
HEK cells were maintained in 100-mm Petri dishes and grown in DMEM medium supplemented with L-glutamine, penicillin-streptomycin (Pen&Strep) and 10% heat-inactivated fetal bovine serum (HIFBS). Growing conditions were 37° C. and 5% CO2. For every-other-day passages, HEK cultures were split at a 1:3 dilution. From Friday to Monday, the split proportion was doubled for all cell lines. For passaging, cultures were rinsed with PBS and incubated with 1 mL of trypsin during 5 minutes. Cells were resuspended in growth medium and finally split to the proper dilution. The experiments were performed in 12-well plates. For immunocytochemistry analysis, sterile 18-mm coverslips were added prior to the plating. 500 !μL of cell resuspension was seeded in each well. If experiments were to be performed 48 hours after the plate preparation, 1:5 was the seeding ratio for HEK cells. When the experiments took place 96 hours post-plating, 1:7 was the working dilution for HEK cells. Unless otherwise stated, HEK cultures were processed 96 hours post-plating.
HEK cells were transfected using the calcium-phosphate method. 12-well plates were refreshed with 500 μL of growth medium before transfection. […]

PDE7 = settings: cited from earlier work
[1] = target: GUCY2C R792S gain-of-function mutant (human) (UniProt P25092)
[2] = target: mouse GUCY2C (endogenous, in mouse striatal slices) (mouse, UniProt Q3UWA6); experiment: cell-based or functional assay

Row | Molecule | P-Ser40 levels / Ser40 phosphorylation (in words) (GUCY2C) | P-S40 TH/TTH, fold change (average), mouse striatal slices, 10 µM, 1 h (WES) [2] | further results
1 | uroguanylin: natural agonistic ligand of GUCY2C, 16 amino acid peptide (NDDCELCVNVACTGCL; disulfide 4-12, 7-15; UniProt Q16661 97-112, looked up) | increase P-Ser40 levels |  | 
2 | OCCN(CCO)c1nc(N2CCCCC2)c2nc(N(CCO)CCO)nc(N3CCCCC3)c2n1 [Dipyridamole] |  |  | IC50 (PDE7): 600 nM
3 | guanylin (Example 1) (ligand) |  |  | Ser40 phosphorylation of Th upon guanylin treatment (western blot) (fold higher than with the wt receptor) [1]: 1.5
4 | CC(C)Cn1c(=O)n(C)c(=O)c2[nH]cnc21 [IBMX, 3-isobutyl-1-methylxanthine] | potentiated the increase in Ser40 phosphorylation |  | 
5 | B1 |  | 1.2 fold change (average) | 
6 | B2 |  | 1.11 fold change (average) | 
